The target of this experiment is TCRβ chain of the 5c.c7 TCR (Vβ3) (mouse (T-cells of 5c.c7 TCR transgenic mice)). Kind of experiment: FRET or BRET. On the technique in general: BRET reads energy transfer from a luciferase to a nearby fluorophore.

“CD3ε (from UniProt P22646 22-189) (natural protein)” displayed an FRET yield of 25%.

Values taken from publication PMC7612939.
